Experimental data published in paper PMC9087419 (European Journal of Immunology, 2022).

How the values were obtained:
Assay in all cases: flow cytometry on cells
Conditions in all cases: one partner purified
[1] = biological target: T1, SARS‐CoV‐2 spike membrane protein of the Wuhan‐Hu‐1 strain (SARS-CoV-2 Wuhan-Hu-1 (QHD43416.1), UniProt P0DTC2)
T1 construct: source: HEK293, transiently cotransfected (PEI) with a GFP plasmid, on the cell surface

[2] = biological target: T2, SARS‐CoV‐2 spike membrane protein of the Delta variant (B.1.617.2) (SARS-CoV-2, Delta variant B.1.617.2, strain)
T2 construct: also called Delta spike protein

[3] = biological target: T3, SARS‐CoV‐2 spike membrane protein of the Omicron variant (B.1.1.529) (SARS-CoV-2, Omicron variant B.1.1.529, …, strain)
T3 construct: also called Omicron spike protein

B1: REGN10933 (Casirivimab) (antibody, V domains shown)
VH: QVQLVESGGGLVKPGGSLRLSCAASGFTFSDYYMSWIRQAPGKGLEWVSYITYSGSTIYYADSVKGRFTISRDNAKSSLYLQMNSLRAEDTAVYYCARDRGTTMVPFDYWGQGTLVTVSS
VL: DIQMTQSPSSLSASVGDRVTITCQASQDITNYLNWYQQKPGKAPKLLIYAASNLETGVPSRFSGSGSGTDFTFTISGLQPEDIATYYCQQYDNLPLTFGGGTKVEIK
- MdFI [1]: 236000
- MdFI [2]: 148000
- MdFI [3]: 103000

B2: 8D2 (antibody, V domains shown)
VH: EVQLVESGGGLVQPGGSLRLSCAASGFTFSSYWMSWVRQAPGKGLEWVANINQDGSEKYYVDSVKGRFTISRDNAKNSLYLQVNSLRAEDTAVYYCARDWDYDILTGSWFGAFDIWGQGTTVTVSS
VL: DIQMTQSPSSLSASVGDRVTITCRASQGIRNDLGWYQQKPGKAPKRLIYAASSLQSGVPSRFSGSGSGTEFTLTISSLQPEDFATYYCLQHNSYPLTFGGGTKVEIK
- MdFI [1]: 37000

B3: BMS‐986414 (C135) (antibody, V domains shown)
VH: QVQLVESGGGVVQPGRSLRLSCAASGFTFSSYAMHWVRQAPGKGLEWVAVIPFDGRNKYYADSVTGRFTISRDNSKNTLYLQMNSLRAEDTAVYYCASSSGYLFHSDYWGQGTLVTVSS
VL: DIQMTQSPSTLSASVGDRVTITCRASQSISNWLAWFQQKPGKAPKLLIYEASSLESGVPSRFSGSGSGTEFTLTISSLQPDDFATYYCQQYNSYPWTFGQGTKVEIK
- MdFI [2]: 666000

B4: LY‐CoV555 (Bamlanivimab) (antibody, V domains shown)
VH: QVQLVQSGAEVKKPGSSVKVSCKASGGTFSNYAISWVRQAPGQGLEWMGRIIPILGIANYAQKFQGRVTITADKSTSTAYMELSSLRSEDTAVYYCARGYYEARHYYYYYAMDVWGQGTAVTVSS
VL: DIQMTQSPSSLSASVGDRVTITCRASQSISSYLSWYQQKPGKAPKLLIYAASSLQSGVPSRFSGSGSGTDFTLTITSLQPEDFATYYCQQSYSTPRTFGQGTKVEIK
- MdFI [1]: 355000
- MdFI [2]: 40000

B5: CT‐P59 (Regdanivimab) (antibody, V domains shown)
VH: QITLKESGPTLVKPTQTLTLTCSFSGFSLSTSGVGVGWIRQPPGKALEWLALIDWDDNKYHTTSLKTRLTISKDTSKNQVVLTMTNMDPVDTATYYCARIPGFLRYRNRYYYYGMDVWGQGTTVTVSS
VL: ELVLTQPPSVSAAPGQKVTISCSGSSSNIGNNYVSWYQQLPGTAPKLLIYDNNKRPSGIPDRFSGSKSGTSATLGITGLQTGDEADYYCGTWDSSLSAGVFGGGTELTVL
notes: also called Regdanvimab; Regkirona
- MdFI [1]: 131000
- MdFI [2]: 233000

B6: BMS‐986413 (C144) (antibody, V domains shown)
VH: EVQLVESGGGLIQPGGSLRLSCAASGFTVSNNYMSWVRQAPGKGLEWVSVIYSGGSTYYADSVKGRFTISRDKSKNTLYLQMNRLRAEDTAVYYCAREGEVEGYNDFWSGYSRDRYYFDYWGQGTLVTVSS
VL: QSALTQPASVSGSPGQSITISCTGTSSDVGGYNYVSWYQQHPGKAPKLMIYDVSNRPSGVSNRFSGSKSGNTASLTISGLQAEDEADYYCSSYTSSSTRVFGTGTKVTVL
- MdFI [1]: 340000
- MdFI [2]: 408000

B7: REGN10987 (Imdevimab) (antibody, V domains shown)
VH: QVQLVESGGGVVQPGRSLRLSCAASGFTFSNYAMYWVRQAPGKGLEWVAVISYDGSNKYYADSVKGRFTISRDNSKNTLYLQMNSLRTEDTAVYYCASGSDYGDYLLVYWGQGTLVTVSS
VL: QSALTQPASVSGSPGQSITISCTGTSSDVGGYNYVSWYQQHPGKAPKLMIYDVSKRPSGVSNRFSGSKSGNTASLTISGLQSEDEADYYCNSLTSISTWVFGGGTKLTVL
- MdFI [1]: 371000
- MdFI [2]: 471000

B8: S2H97 (antibody, V domains shown)
VH: QVRLVQSGAEVKKSGESLKISCKGSGYSFTSYWIGWVRQMPGKGLEWMGIIYPGDSDTRYSPSFQGQVTISADKSISTVYLQWSSLKASDTAMYYCARQWSHYTYDYYYWGQGTLVTISS
VL: QSVLTQPASVSGSPGQSITISCTGISSDVGGYNSVSWYQQHPGKAPKLMIYDVTNRPSGVSNRFSGSKSGNTASLTISGLQAEDEADYYCSSYTSSSTPPYVFGTGTKVSVL
- MdFI [1]: 58000
- MdFI [2]: 74000
- MdFI [3]: 296000

B9: AZD1061 (Cilgavimab) (antibody, V domains shown)
VH: EVQLVESGGGLVKPGGSLRLSCAASGFTFRDVWMSWVRQAPGKGLEWVGRIKSKIDGGTTDYAAPVKGRFTISRDDSKNTLYLQMNSLKTEDTAVYYCTTAGSYYYDTVGPGLPEGKFDYWGQGTLVTVSS
VL: not shown
- MdFI [2]: 468000
- MdFI [3]: 101000

B10: 3467 (antibody, V domains shown)
VH: QVQLQESGPGLVKPSETLSLTCTVSGGSISSYHWNWIRQPPGKGLEWIGYIYYSGNTNYNPSLKSRVSISTDTSKNQFSLKLSSVTAADTAVYYCVREMRRGYSGYDYWDLYAFDIWGQGTMVTVSS
VL: DIQLTQSPSFLSASVGDRVTITCRASQGISSYLAWYQQKPGKAPNLLIYAASTLQSGVPSRFSGSGSGTEFTLTISSLQPEDFATYYCQQLNSYPHTFGQGTKLEIK
notes: also called TRIANNI mouse‐derived antibody 3467
- MdFI [1]: 165000
- MdFI [2]: 31000
- MdFI [3]: 25000

B11: LY‐CoV016 (Etesevimab) (antibody, V domains shown)
VH: EVQLVESGGGLVQPGGSLRLSCAASGFTVSSNYMSWVRQAPGKGLEWVSVIYSGGSTFYADSVKGRFTISRDNSMNTLFLQMNSLRAEDTAVYYCARVLPMYGDYLDYWGQGTLVTVSS
VL: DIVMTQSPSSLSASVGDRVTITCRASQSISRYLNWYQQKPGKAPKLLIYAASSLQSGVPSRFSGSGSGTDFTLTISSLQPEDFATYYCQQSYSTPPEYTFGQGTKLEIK
- MdFI [1]: 282000
- MdFI [2]: 192000

B12: AZD8895 (Tixagevimab) (antibody, V domains shown)
VH: QMQLVQSGPEVKKPGTSVKVSCKASGFTFMSSAVQWVRQARGQRLEWIGWIVIGSGNTNYAQKFQERVTITRDMSTSTAYMELSSLRSEDTAVYYCAAPYCSSISCNDGFDIWGQGTMVTVSS
VL: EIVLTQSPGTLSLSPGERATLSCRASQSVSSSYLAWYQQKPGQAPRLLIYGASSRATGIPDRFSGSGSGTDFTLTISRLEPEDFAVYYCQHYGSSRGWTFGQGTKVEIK
- MdFI [1]: 250000
- MdFI [2]: 59000
- MdFI [3]: 73000
